Drawing on paper PMC2782731, this text covers Km and Vmax for 5 proteins.

Substrate in data set [1]: CC1=C(/C=C/C(C)=C/C=C/C(C)=C/C=O)C(C)(C)CCC1
The data set can be described thus: HPLC of retinol formed, microsomes of Sf9 cells. The note with it: apparent; 1 mM NADPH; BSA-solubilized substrate; ambient temperature; reduction. Format: biochemical, Drosophila melanogaster.

Substrate in data set [2]: CC1=C(/C=C/C(C)=C/C=C/C(C)=C/C=O)C(C)(C)CC(O)C1
The data set can be described thus: HPLC of 3-hydroxyretinol formed, microsomes of Sf9 cells. It counts as biochemical, Drosophila melanogaster. The note with it: apparent; 1 mM NADPH; BSA-solubilized substrate; ambient temperature; reduction.

B1: CG2070 (Drosophila melanogaster) (protein)
chain: MSAPTDYLFCPLAYGSALSAIGIYLLRQYMQGGQFTTKTNETGRVAIVTGCNQGIGKETVLELARRGATVYMACRDMKKCENARREIIKATNNQNIFARQLDLCSMKSIRNFAAGFKREQNKLHILINNAGIMDCPKMLTEDGFEMQIGVNHMGHFLLTLLLLDVLKSSAPSRVVVLSSIAHRFGRIKRDDLNSEKSYDRKMAYCQSKLANVLFTRELAKRLSGTGVTVNALHPGVVNTELFRNTPFLGSWFGKLLIAPIIWIFIKTARNGAQTTLYAALDPSLEKVSGRYFSDCKQKHVGSAAQYDDDAQFLWAESEKWTGINI
On to B1, for which, in data set [1], the Km (usually the concentration of substrate that gives half-maximal velocity) is 0.4 ± 0.1 µM and the Vmax (usually the rate approached at saturating substrate) was 0.021 µmol/min/mg.

B2: CG2064 (Drosophila melanogaster) (protein)
chain: MCIFIDCLLSPLIMWPATIGVGIYFLKEYMQGGKFTKDTDETGKVFIVTGANTGIGKETALEIARRGGTVYLACRDMNRCEKARKDIIKETNNQNIFSRELDLSSLDSIRKFVDGFKKEQPKLHVLINNAGVMRCPKTLTKDGYELQLGVNHIGHFLLTNLLLDVLKNSAPSRIVVVSSLAHARGSINVADLNSEKSYDEGLAYSQSKLANVLFTRELAKRLEGSGVTVNALHPGVVDTELARNWAFFQTNLVKFFLKPMIWPLLKTPKSGAQTSIYAALDPELKNISGLYFSDCKPKPVASGALDDKVAKFLWAESEKWTGLDKLEANN
In the case of B2, in data set [2], the Km turned out to be 2.7 ± 0.9 µM and the Vmax turned out to be 0.00045 µmol/min/mg. Moreover, in data set [1], the Km came out at 4.2 ± 1.2 µM and the Vmax was 0.0016 µmol/min/mg.

B3: CG30491 (Drosophila melanogaster) (protein)
chain: MSLFAFLKSRTAFWLSFTGTTTGLAFFVKDLMQGGQFTKETNETGKVFIVTGANTGIGKETVREIAKRGGTVYMACRNLKKCEEAREEIVLETKNKYVYCRQCDLASQESIRHFVAAFKREQEHLHVLINNAGVMRCPRSLTSDGIELQLGVNHMGHFLLTNLLLDLLKKSSPSRIVNVSSLAHTRGEINTGDLNSDKSYDEGKAYSQSKLANVLFTRELAKRLEGTNVTANALHPGVVDTEIIRHMGFFNNFFAGLFVKPLFWPFVKTPRNGAQTSLYVALDPELEKVTGQYFSDCKLKEMAPAATDTQTAKWLWAVSEKWTKPTMIKIQ
For B3, in data set [2], the Km came to 3.2 ± 0.3 µM and the Vmax was 0.029 µmol/min/mg. For the same protein, the Km in data set [1] was found to be 0.6 ± 0.1 µM.

B4: CG2065 (Drosophila melanogaster) (protein)
chain: MQGGQFTKQTDETGKVFIVTGANTGIGKETVLEIAKRGGTVYMACRDMNRCEKARQDIIRETNNQNIFSRELDLSSLESIRKFAAGFKKEQDKLHVLINNAGVMHCPRTLTKDGFEMQLGVNHMGHFLLTHLLLDVLKKTAPSRIVNVSSLVHTQGFIKTADLNSEKSYSRIGAYSQSKLANVLFTRELAKRLEGTGVTTNSLHPGAVDTELSRNWKFLKHPFAQLLLKPLLWVLFKTPRNGAQTTLYAALDPALKDVSGLYFSDCQPKEVSAAAQDDKTGKFLWAESEKWTGVNSTKVD
As to B4, in data set [2], the Km came out at 4.4 ± 0.6 µM and the Vmax was 0.001 µmol/min/mg. For the same protein, in data set [1], the Km came to 0.7 ± 0.1 µM and the Vmax turned out to be 0.0016 µmol/min/mg.

B5: CG3842 (Drosophila melanogaster) (protein)
chain: MSEAATPPGSVPGTVFPPGFDPTAESVEKTLCFRGFWAWAVLIFLIVLGILLFMWLLRKCIQGPAYRKANRIDGKVVIVTGCNTGIGKETVLELAKRGARVYMACRDPGRCEAARLDIMDRSRNQQLFNRTLDLGSLQSVRNFVERFKAEESRLDILINNAGVMACPRTLTADGFEQQFGVNHLGHFLLTNLLLDRLKHSSPSRIVVVSSAAHLFGRINREDLMSEKNYSKFFGAYSQSKLANILFTLKLSTILKDTGVTVNCCHPGVVRTEINRHFSGPGWMKTALQKGSLYFFKTPKAGAQTQLRLALDPQLEGSTGGYYSDCMRWPLFPWVRNMQTADWLWRESEKLLGLPPLEPPPPVQSPTQNGNGTQNGNGSSSASASASSNNPASREMQSVETVVVNRS
Consider B5, for which, in data set [2], the Km was determined as 4.1 ± 0.1 µM and the maximum rate (Vmax) came out at 0.025 µmol/min/mg. Also, in data set [1], the Km stood at 0.27 ± 0.05 µM and the Vmax was 0.007 µmol/min/mg.
